Assay results from patent US20220227809A1.
Ends that are not written are not given here.

Legend:
[1] = target: norovirus GII.3 TCH strain virus-like particle (VLP) (norovirus GII.3 TCH strain); test: BLI (BLItz), biotinylated peptide on SA chip, VLP in solution
[2] = target: norovirus GII.17 Saitama strain virus-like particle (VLP) (norovirus GII.17 Saitama strain); test: as above

Row | Binder | Kd [1] [nM] | koff [1] [s⁻¹] | kon [1] [M⁻¹ s⁻¹] | Kd [2] [nM] | koff [2] [s⁻¹] | kon [2] [M⁻¹ s⁻¹]
1 | CKARSARGVS (also: biotinylated via PEG3 (AEEEA)-Trp spacer, attachment site and resin-derived C-terminal Lys or Cys not given here) [norovirus-binding peptide of SEQ ID NO: 288] | 6.86 | 0.0143 | 2.09e+06 | 12 | 0.00747 | 620000
2 | RSMSLHVSMT (also: biotinylated via PEG3 (AEEEA)-Trp spacer, attachment site and resin-derived C-terminal Lys or Cys not given here) [norovirus-binding peptide of SEQ ID NO: 283] | 0.909 | 0.00715 | 7.86e+06 | 1.39 | 0.00138 | 994000
3 | RFLVPVVKVM (also: biotinylated via PEG3 (AEEEA)-Trp spacer, attachment site and resin-derived C-terminal Lys or Cys not given here) [norovirus-binding peptide of SEQ ID NO: 103] | 8.07 | 0.017 | 2.1e+06 | 8.13 | 0.0112 | 1.38e+06
4 | FVWRRRAGLY (also: biotinylated via PEG3 (AEEEA)-Trp spacer, attachment site and resin-derived C-terminal Lys or Cys not given here) [norovirus-binding peptide of SEQ ID NO: 167] | 1.39 | 0.00435 | 3.14e+06 | 0.696 | 0.00111 | 1.59e+06
5 | FVWSRRTGLY (also: biotinylated via PEG3 (AEEEA)-Trp spacer, attachment site and resin-derived C-terminal Lys or Cys not given here) [norovirus-binding peptide of SEQ ID NO: 205] | 31.6 | 0.0325 | 1.03e+06 | 109 | 0.0184 | 169000
6 | ANYRWSRSIK (also: biotinylated via PEG3 (AEEEA)-Trp spacer, attachment site and resin-derived C-terminal Lys or Cys not given here) [norovirus-binding peptide of SEQ ID NO: 263] | 57.5 | 0.049 | 851000 |  |  | 
7 | VWWGRRISRF (also: biotinylated via PEG3 (AEEEA)-Trp spacer, attachment site and resin-derived C-terminal Lys or Cys not given here) [norovirus-binding peptide of SEQ ID NO: 302] |  |  |  | 28.4 | 0.0648 | 2.28e+06
